Test results as given in patent US20240376151A1, “STAPLED PEPTIDES AND METHODS THEREOF” (FOG PHARMACEUTICALS, INC., priority 2022, published 2024).

Molecular target: T1, beta-catenin (Homo sapiens, UniProt P35222)
T1 construct: made in house; host or cells: E. coli BL21 (DE3) pLysS
T1 sequence (P35222 134-665): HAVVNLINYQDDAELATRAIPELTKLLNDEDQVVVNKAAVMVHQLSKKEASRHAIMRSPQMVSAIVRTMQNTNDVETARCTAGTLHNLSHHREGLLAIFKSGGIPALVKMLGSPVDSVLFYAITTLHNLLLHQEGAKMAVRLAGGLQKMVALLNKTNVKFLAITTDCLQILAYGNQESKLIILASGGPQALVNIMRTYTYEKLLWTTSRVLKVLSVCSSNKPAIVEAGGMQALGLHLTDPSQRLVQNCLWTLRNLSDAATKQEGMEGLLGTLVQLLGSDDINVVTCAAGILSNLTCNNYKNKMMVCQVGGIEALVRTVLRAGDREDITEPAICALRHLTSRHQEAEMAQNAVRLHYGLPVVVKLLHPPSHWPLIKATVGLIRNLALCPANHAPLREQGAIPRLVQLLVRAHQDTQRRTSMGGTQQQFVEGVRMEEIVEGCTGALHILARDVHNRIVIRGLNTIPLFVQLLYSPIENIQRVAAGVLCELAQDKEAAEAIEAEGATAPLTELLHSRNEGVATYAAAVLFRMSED
Test: Phage Library Screening with NGS, beta-catenin
Type: binding
Details: for Target Concentration 10 (phage screen NGS readout): beta-catenin target concentration 10; for Target Concentration 10 (phage screen NGS readout) / Target Concentration 30 (phage screen NGS readout) / Target Concentration 100 (phage screen NGS readout) / Target Concentration 300 (phage screen NGS readout): no competitor; for Target Concentration 30 (phage screen NGS readout): beta-catenin target concentration 30; for Target Concentration 100 (phage screen NGS readout): beta-catenin target concentration 100; for Target Concentration 300 (phage screen NGS readout): beta-catenin target concentration 300; for Target Concentration 1000 (phage screen NGS readout): beta-catenin target concentration 1000

Target Concentration BLANK (phage screen NGS readout) (first column) | Target Concentration BLANK (phage screen NGS readout) (fourth column) | Target Concentration BLANK (phage screen NGS readout) (second column) | Target Concentration BLANK (phage screen NGS readout) (third column) | Target Concentration 10 (phage screen NGS readout) | Target Concentration 30 (phage screen NGS readout) | Target Concentration 100 (phage screen NGS readout) | Target Concentration 300 (phage screen NGS readout) | Target Concentration 1000 (phage screen NGS readout) (first 1000 column) | Target Concentration 1000 (phage screen NGS readout) (second 1000 column) | Sequence
0 | 0 | 0 | 0 | 0 | 5 | 24 | 36 | 45 | 30 | DPADNECILAAHICTLA
0 | 0 | 1 | 0 | 0 | 7 | 18 | 71 | 69 | 105 | DPAILTCYEAAFTCQYQ
0 | 0 | 0 | 0 | 2 | 1 | 17 | 99 | 61 | 107 | DPAEFYCEMAAVHCELL

More lines, now with the values behind:

Sequence | Target Concentration BLANK (phage screen NGS readout) (first column) | Target Concentration BLANK (phage screen NGS readout) (fourth column) | Target Concentration BLANK (phage screen NGS readout) (second column) | Target Concentration BLANK (phage screen NGS readout) (third column) | Target Concentration 10 (phage screen NGS readout) | Target Concentration 30 (phage screen NGS readout) | Target Concentration 100 (phage screen NGS readout) | Target Concentration 300 (phage screen NGS readout) | Target Concentration 1000 (phage screen NGS readout) (first 1000 column) | Target Concentration 1000 (phage screen NGS readout) (second 1000 column)
DPADEDCILAAHVCRHF | 0 | 0 | 0 | 0 | 0 | 6 | 11 | 29 | 25 | 21
DPAHWRCEHAALLCWYN | 0 | 0 | 0 | 2 | 13 | 6 | 51 | 132 | 140 | 149
DPAIMACYQAAFWCQYN | 1 | 0 | 0 | 1 | 0 | 0 | 4 | 27 | 29 | 18
